The values below come from the RNAGym collection of RNA variant scans (doi:10.7554/elife.80360).

To fix the notation:
B1: CPEB3 Ribozyme (parent)
chain: GGGGGCCACAGCAGAAGCGUUCACGUCGCGGCCCCUGUCAGAUUCUGGUGAAUCUGCGAAUUCUGCUGU

Variants of B1 are the subject of the data set. Kind of data set: self-cleavage, relative activity (ratio to wild type); higher = more cleavage; co-transcriptional.
Take A16C C29U: the self-cleavage was 0.192.
Consider A16G C54U, for which the self-cleavage turned out to be 0.928.
With A15G U46C the figure was 0.974.
With A16G A51G, the self-cleavage worked out at 0.894.
With A16G A51C the figure was 0.819.
As for A16C C35A, the self-cleavage was found to be 0.071.
Take A16C C35U: the self-cleavage came out at 0.17.
For the variant A16C C35G, the self-cleavage was found to be 0.118.
With A15U U62G the figure was 0.991.
In the case of A15U U62C, the self-cleavage worked out at 0.946.
With A15G C66U the figure was 0.964.
As to A16G C22G, the self-cleavage was 0.0656.
Turning to A15G U55G, the self-cleavage came out at 0.85.
The same measure for A15G U55C: 0.869; for A15G U55A: 0.892; for A16C G37C: 0.176.
For A16C G37A, the self-cleavage is 0.0923.
With A16C G37U the figure was 0.0859; with A15U U53C, 0.413.
Consider A15U U53G, for which the self-cleavage amounted to 0.566.
With A15U U53A the figure was 0.468; with A16C C57U, 0.107; with A15U G50C, 0.795.
With A15U G50U the figure was 0.858.
Turning to A16C G28A, the self-cleavage stood at 0.103.
For A16C G28C, the self-cleavage worked out at 0.133.
As for A16G C32U, the self-cleavage is 0.941.
With A16C G58A the figure was 0.189; with A16C G58C, 0.28.
A16C G58U: the self-cleavage stood at 0.494.
The same measure for A16C U36A: 0.115; for A16C U36C: 0.165; for A16C U36G: 0.108.
With A15U G41U the figure was 0.378.
Regarding A15U G41C, the self-cleavage is 0.257.
With A15U C39A the figure was 0.309; with A15U C39G, 0.622.
With A15U G37C the figure was 0.179.
Turning to A15U G37U, the self-cleavage turned out to be 0.176.
Consider A15U G37A, for which the self-cleavage was found to be 0.219.
On to A15U A51G, for which the self-cleavage is 0.916.
The same measure for A15U A51C: 0.79; for A16C U43A: 0.118; for A15U U21G: 0.157.
The same measure for A15U U21C: 0.592; for A16G A42C: 0.608.
A15U C24G: the self-cleavage stood at 0.214.
With A15U C24U the figure was 0.28; with A16C G68A, 0.61; with A16C G68C, 0.454.
Turning to A16C U53G, the self-cleavage worked out at 0.251.
With A16C U53C the figure was 0.152; with A15G U64G, 0.918; with A15G G56C, 0.785.
Regarding A15G G56A, the self-cleavage is 0.944.
The same measure for A15G G56U: 0.985.
With A15G G41U the figure was 0.891; with A15G G19U, 0.439.
With A15G G19A the figure was 0.216.
For the variant A15G G19C, the self-cleavage stood at 0.15.
With A16G A59G the figure was 0.944; with A16G A59C, 0.417; with A15G G65C, 0.825.
With A15G G65U the figure was 0.784; with A15U U49A, 0.931.
Regarding A15U U49G, the self-cleavage turned out to be 0.884.
Consider A15U U49C, for which the self-cleavage was determined as 0.817.
The same measure for A16C U61G: 0.848.
For A15G U61C, the self-cleavage amounted to 0.892.
On to A15G U61G, for which the self-cleavage came to 0.822.
The same measure for A15G U61A: 0.982; for A16G G17A: 0.0854; for A16G G17U: 0.559.
With A16C U44C the figure was 0.178.
With A15G G17U the figure was 0.424; with A15G G17A, 0.312.
As for A15U G47U, the self-cleavage was found to be 0.919.
With A15U G47A the figure was 0.95.
With A15U G47C the figure was 0.989; with A15U A42C, 0.594.
With A15U A42U, the self-cleavage was found to be 0.613.
With A16C A52C, the self-cleavage was found to be 0.239.
As for A16C A52U, the self-cleavage came out at 0.249.
With A15U G65C the figure was 0.433.
Turning to A15U U61G, the self-cleavage turned out to be 0.854.
With A15U U61C the figure was 0.686; with A16C U46A, 0.51.
As to A15G G31C, the self-cleavage was 0.204.
With A15G G31A, the self-cleavage stood at 0.874.
For the variant A16C U20G, the self-cleavage was 0.285.
Turning to A15U U38G, the self-cleavage was determined as 0.178.
Consider A15U U38A, for which the self-cleavage turned out to be 0.548.
With A16C G30C the figure was 0.191.
With A15G U43C the figure was 1.01.
With A15U G30U the figure was 0.184; with A15U G30C, 0.287.
For the variant A15U G30A, the self-cleavage turned out to be 0.361.
In the case of A15U C63A, the self-cleavage is 0.832.
With A15U C63U, the self-cleavage stood at 0.794.
Turning to A16C G65A, the self-cleavage is 0.155.
Turning to A16C G65U, the self-cleavage amounted to 0.13.
The same measure for A16C A42C: 0.245.
With A16C A42U the figure was 0.102.
Regarding A15G G58U, the self-cleavage is 0.978.
The same measure for A15G G58C: 1.01; for A16C G41A: 0.129; for A16C G41U: 0.142.
With A16G C57G the figure was 0.324; with A16G C57U, 0.317; with A16G C57A, 0.335.
With A15U U46C the figure was 0.848.
A15U U26A: the self-cleavage was 0.34.
Regarding A15U U26C, the self-cleavage stood at 0.634.
The same measure for A15U U26G: 0.424; for A15U U20C: 0.211; for A15U U20G: 0.132.
With A15U U20A, the self-cleavage was determined as 0.106.
As to A15G U26C, the self-cleavage turned out to be 1.03.
The same measure for A15G U26A: 0.905; for A15G U26G: 0.953.
Turning to A15U C32A, the self-cleavage was 0.285.
The same measure for A15U C32G: 0.247.
With A15G U20G the figure was 0.161.
For A15G U20A, the self-cleavage is 0.092.
The same measure for A15U C22U: 0.107.
The same measure for A15U C22G: 0.126; for A15U C22A: 0.225.
On to A15G G68C, for which the self-cleavage was 1.05.
In the case of A15G G68A, the self-cleavage worked out at 1.02.
With A15U U67G the figure was 0.87; with A15U U67A, 0.889.
Turning to A15U C45G, the self-cleavage worked out at 0.823.
The same measure for A16C C32G: 0.136; for A16C C32U: 0.299.
For the variant A16C G19U, the self-cleavage came to 0.137.
The same measure for A16C G19C: 0.0843; for A16C G19A: 0.132.
Consider A16C C18A, for which the self-cleavage was found to be 0.129.
In the case of A16C C18G, the self-cleavage amounted to 0.114.
For A15U A40G, the self-cleavage is 0.697.
The same measure for A15U A40C: 0.287; for A15G U53C: 0.859; for A15G U53G: 0.958.
For the variant A16G C29U, the self-cleavage was 0.111.
The same measure for A16G C29A: 0.224; for A16C C24G: 0.171.
With A16C C22A the figure was 0.105; with A16C C22G, 0.0967.
Consider A15U C18U, for which the self-cleavage was found to be 0.338.
The same measure for A15U C18A: 0.122; for A15U C18G: 0.186; for A15U C34A: 0.513.
With A15U C34U the figure was 0.891; with A15U C34G, 0.372; with A15U U44A, 0.705.
The same measure for A16C U26A: 0.158.
As for A16C U26G, the self-cleavage is 0.102.
Regarding A16C U26C, the self-cleavage was 0.264.
For A15G G47A, the self-cleavage was 0.971.
With A16G C66G the figure was 0.646.
A16G C66U: the self-cleavage is 0.89.
The same measure for A15U C54A: 0.468.
With A15U C54G the figure was 0.412.
Regarding A15U C54U, the self-cleavage amounted to 0.845.
The same measure for A16G G25C: 0.257; for A16G G25U: 0.174.
The same measure for A16G G25A: 0.283.
